{"source": "patent US6403769", "binders": {"B1": {"name": "keratinocyte growth factor (KGF) (ligand, human, UniProt P21781 32-194, looked up)", "chain": "CNDMTPEQMATNVNCSSPERHTRSYDYMEGGDIRVRRLFCRTQWYLRIDKRGKVKGTQEMKNNYNIMEIRTVAVGIVAIKGVESEFYLAMNKEGKLYAKKECNEDCNFKELILENHYNTYASAKWTHNGGEMFVALNQKGIPVRGKKTKKEQKTAHFLPMAIT"}}, "key": {"[1]": {"biological_target": "KGFR-HFc fusion protein (construct not specified)", "test": "binding of 125I-KGF to KGFR-HFc in solution, capture on Gamma Bind G"}, "[2]": {"biological_target": "keratinocyte growth factor receptor (KGFR) (UniProt P21803)", "test": "cell-based or functional assay"}, "[3]": {"biological_target": "keratinocyte growth factor receptor (KGFR) (UniProt P21803)", "test": "competition with 125I-KGF on 32D cells expressing KGFR"}}, "data": [{"binder": "B1", "values": [{"measurement": "ligand concentration at which saturable binding was achieved", "setting": "[1]", "value": "15 to 25", "unit": "ng/mL"}, {"measurement": "half-maximal stimulation of 3H-thymidine uptake in BALB/MK cells", "setting": "[2]", "value": 10, "unit": "pM"}, {"measurement": "Kd", "setting": "[3]", "value": 0.13, "unit": "nM"}]}]}
